Where a chain is given by its changes, count along the chain named.
B1: Eterna 6447203 (Exclusion NG 2) (ssRNA)
RNA: AUCAGCUCGUCAGGAUAUACGUAACUGCGUCAGCAGUGUGGUAAGAUCACAUGAGGAUCACCCAUGUAGAAGGGACGAGCUGAU
B2: Eterna 7696419 (Exclusion - Arginine B) (ssRNA)
RNA: AAUGUACAGGGAAGGAGCGUAGUCCAGUGAUGUUGGAGUUAAAUACCAGUGAUGUUGGUUAUACAGGUAGGUCGCCCUAAAGUGC
B3: Eterna 7687503 (Exclusion - Theophylline A) (ssRNA)
RNA: UGUAUGUGUCAGCGAGUGAUGUUCGACGAUACCAGACUCGAUAGAGUCCCUUGGCAGCGUAAUGCAUGCCAAACUGGCACAUACU
B4: Eterna 6428636 (Exclusion NG 3) (ssRNA)
RNA: AGGUAUCCUGAGAAAUUUCUCCACAUGAGGAUCACCCAUGUAGAGGAUAUCGACGCUGUGCGGUUCGAGAAGGCUACACUAAAA
B5: Eterna 6121278 (Same State NG 1) (ssRNA)
RNA: UCACUCAAGUUAGGAUAUGGAUCGGAAAACGAUCCAGAAGGAACAUGAAAACAUGAGCAUCAGCCAUGUUCCAGAAACGAGUGA
B6: Eterna 6121478 (Same State NG 1) (ssRNA)
RNA: B5 RNA with U1G, A29C, U46C, G47A, A49U, A66G, A84C
B7: Eterna 6458016 (Inverted Same State NG 1) (ssRNA)
RNA: CGCUACACCCAGAAGGACAUGAGGAUCACCCAUGUAGGAUAUGGGAGACACAGUCCCAUGUAGAGAAAUUACGCUAGUGUAGCG
B8: Eterna 7696031 (Exclusion - Tryptophan B) (ssRNA)
RNA: UGAUACCAGACGGCCGCCACUACACCAGUCAAAGACUGGAUGUGAAAUUCGACCAGUGAUGUUGGUAGGACCGGGUCUGGUAUCU
B9: Eterna 8125 (Exclusion 4) (ssRNA)
RNA: GUGAAGUGAGGAUAUACGAGAGAGGCUGAACCGGACGAGAAGUAGAAGGCACAUGAGGAUCACCCAUGUACGGG
B10: Eterna 7692481 (Exclusion - Theophylline B) (ssRNA)
RNA: UUAGUUGAAAGUGAUACCAGACGAGUGAAGGGAAGAAAUUAAGUUGGAGUGAUGUUCCGCGUCCCUUGGCAGCACUUUGUAAUUU
B11: Eterna 9265 (Exclusion 1) (ssRNA)
RNA: CCGUCACAUGAGGAUCACCCAUGUCAGGAUAUCUAUCAUAGCAUCGAAAGAUGCGGGUAGAGAAGGGACUAUCC
B12: Eterna 6374082 (Exclusion NG 1) (ssRNA)
RNA: CGGUGACGUGUAGGAUAUGGCGCUGGGUUUUGGCCAGAAGGACAUGAGGAUCACCCAUGUGGUAGAGGGCUGGCGGCCGCCCGU
B13: Eterna 1023 (Exclusion - FMN A) (ssRNA)
RNA: GUCCAUGUCCUCAUUCGUGCACUGGACACCAAGGAUAUGUUUAUGGACAGAAGGUGGUUGGGUCAGUGAUGUUGAUAUAAUUAGU
B14: Eterna 6398795 (Exclusion NG 1) (ssRNA)
RNA: CCUGCACCUCAAGGAUAUCCAGUCGAAACGACUGGAGAAGGUGAGGAUCACCCAUCUAGCCUGACGAAAGUCAGGCAUGCAGGA
B15: Eterna 7684764 (Exclusion - Tryptophan B) (ssRNA)
RNA: AAUAAAAUCACGGCCGCCACUGAUGUUAAUAUUAGCAGUGAUGUUGCUAUGUCGUUUUUAUUUAACAGGACCGGGUGAAUAUUUA
B16: Eterna 7673438 (Same State - Arginine B) (ssRNA)
RNA: UGUAUGGACUGAAGGAGCGGGUUGAUAUCAUGAGGAUCACCCAUGGAAAAGGCGAAAGCCGCCCAGGUAGGUCGCAGUCCAUACU
B17: Eterna 7673392 (Same State - Arginine B) (ssRNA)
RNA: B16 RNA with U28A, A30C, C40U, U44G, G46U, G61A
B18: Eterna 5503477 (Same State 1) (ssRNA)
RNA: AAGAAACAUGAGGAUCACCCAUGUAAGAUAAACACAGGAUAUGCGAAUAAAAUAAAUAAAGCAGAAGGGUGAAGAA
B19: Eterna 7755228 (Same State - Theophylline A) (ssRNA)
RNA: AAAAUAAAUCAGUGAUGUUGGUAUCCGGAUACCAGCGAUAAUCAUCGCCCUUGGCAGCCGCGGACGUACAAAAUAAGUACGUCCU
B20: Eterna 6117498 (Same State NG 2) (ssRNA)
RNA: AAAACAUACCGAGGAUAUUCAUAUAAUAAAUAAACAUGAGGAUCACCCAUUUGGCAAAAGCCUAGGGAGAAGGCGGAAUGCUAA
B21: Eterna 6421601 (Exclusion NG 3) (ssRNA)
RNA: GGUACUCAAAGAGUACCAAAACGAACAUGAGGAUCACCCAUGUAGGAUAUGCUACUCAAAGAGUAGCAGAAGGACAUGUGCCUA
B22: Eterna 7730540 (Same State - FMN A) (ssRNA)
RNA: AGCGAGUGAUGUUCGCUGAUCAUGUGAAGUUAGGAUAUAUACUUGCAUAGAAGGAACUAUUACAUGACAUUAGAGGCAGUAGUUC
B23: Eterna 7697025 (Exclusion - Arginine B) (ssRNA)
RNA: UGAUAGGACAGAAGGAGCGGAAGUGAUGUUUCCAAUGGAUAAAAGGUGUCAAAGACACCCUUCCAGGUAGGUCGCUGUCCUAUCU
B24: Eterna 6063240 (Exclusion 4) (ssRNA)
RNA: GUUUCGUCAGGAUAUGUGGCUUCGAUCGUGCGAAGAAGGCUACAGAAGGCACAUGAGGAUCACCCAUGUUCGUC
B25: Eterna 7710481 (Same State - Theophylline B) (ssRNA)
RNA: GGAGGUUGGUGCGAUACCAGACCAGCAGUGAUGUUGCGCCAAAGUGAGUGAUGUUCACCGGUCCCUUGGCAGCGCAUUCCUUUAG
B26: Eterna 15969 (Sensor v3, turn-off variant 2) (ssRNA)
RNA: AAGUACCGUCACGAUAGUGAUGGUACAACAAGCAAAUGUACAUGAGGAUCACCCAUGUCCUCUUUUGCUCGUCUUGU
B27: Eterna 11606 (Exclusion 1) (ssRNA)
RNA: UUUUAACAUGAGGAUCACCCAUGUGAGGAUAUCGAUAUUUUUAUUAAUAUUAAUAAAACGAGAAGGCACAUUUU
B28: Eterna 6407693 (Inverted Exclusion NG 2) (ssRNA)
RNA: UCAGGCUUCGAGAAGGACAUGAAUCGUAGCAUUGCUACGAUGAAUUAUACAUGAGGAUCACCCAUGUAGGAUAUCGGAGUCUGC
B29: Eterna 7692142 (Exclusion - FMN A) (ssRNA)
RNA: UUAUAUACGAGUGAUGUUCGUUAUUUAUCAGAGGAUAUGCUUAAAUGCAGAAGGCUGUUUUUCUAUUUGAUAUUAAAUUUUAUAA
B30: Eterna 7710586 (Same State - Theophylline B) (ssRNA)
RNA: UCUGGUAUAUCUGAUACCAGAGUAUAGUAUCAAUUGCAUAUCCGCAGUGAUGUUGCGGAACUCCCUUGGCAGCAGAUCUAUCUCU
B31: Eterna 5973727 (Sensor, turn-off variant 1) (ssRNA)
RNA: CCGUGCACGCUGCGCUCCUACAUGAGGAUCACCCAUGUGGUCCGGUGGCGUGGGUCGCCGGACUUGGCUCGUCUUGU
B32: Eterna 7710185 (Exclusion - Tryptophan A) (ssRNA)
RNA: AGCUCGCAUCCUCUAGCGUCAAAGACGCCUCGAGGACCGGUACGGCCGCCACUCGAGAUGAGGAUCACCCAUCUCAAAGCGAGCA
B33: Eterna 6454516 (Inverted Same State NG 3) (ssRNA)
RNA: AAACACGGACAUGAGGAUCACCCAUGUGGCGAAAGCCUUGGAAGAAGGCCGAUUGCAAAGCAAUCGGAGGAUAUUCAUACCGUG
B34: Eterna 7770355 (Exclusion - Tryptophan A) (ssRNA)
RNA: GGUGUUGUUUGUGCUGUUUUCCUCGUUCCUCGAGGACCGGUACGGCCGCCACUCGAGUGAUGUUUGGGUAGCGAUCCUUGUUAGU
B35: Eterna 6429242 (Inverted Exclusion NG 1) (ssRNA)
RNA: UCCGCAUCUGAGAAGGGAUCUCCGCGGAAGGGAUCAGGAUAUCGGACAUGAGGAUCACCCAUGUGCCGUUAAAGGACACCUGGU
B36: Eterna 6150223 (Exclusion NG 3) (ssRNA)
RNA: AUUAUGACCGAGUUAUGCUUCAAAACAUGAGGAUCACCCAUGUAGGAUAUCAGCACGAUAAGUGCUGAGAAGGACAUCUCGGUC
B37: Eterna 6443507 (Inverted Exclusion NG 1) (ssRNA)
RNA: CGAACCAUGUAGAAGGCUGUCUUAAAAUAGGACAGAGGAUAUACAUGAGGAUCACCCAUGUACUCCUUUAAAAGGUUCGAAAUA
B38: Eterna 12594 (Exclusion 3) (ssRNA)
RNA: AACGAUCUAGGAUAUACAUGAGGAUCACCCAUGUAAGAGCCCAAACCAGGCUCCCUCUGUAGAAGGAGGUCAAA
B39: Eterna 7734801 (Same State - FMN B) (ssRNA)
RNA: UGUACCGAGUCAGGAUAUGUCGUCGAAAGACGAAUCCUAGUGAUGUUAGGGAUCUGCGAAAGCAGUGCAGAAGGGACUUGGUACU
B40: Eterna 7632613 (Same State - Theophylline B) (ssRNA)
RNA: GGGUGUGAUCCGGAUACCAGCGAACAUGAGGAUCACCCAUGUGACCUGAGAUCGGCUCUACGCCCUUGGCAGCCGCGGUCGCAGG
B41: Eterna 7697814 (Same State - Tryptophan B) (ssRNA)
RNA: AGUAGUUGGACGGCCGCCACUGGAACAGCUUUGCCAAAGGCAGAGCACUAGAGUGAUGUUCUAGCUAGGACCGGGUCCAACUACA

Each binder was assayed against MS2 coat protein, dlFG mutant (Escherichia phage MS2, UniProt P03612, del68-81insG) (assay: 4 mM Mg2+; no ligand; RNA-MaP array; 100 mM Tris-HCl pH 7.5, 80 mM KCl, 4 mM MgCl2, 0.1 mg/mL BSA, 1 mM DTT, 0.01 mg/mL yeast tRNA, 0.01% Tween-20; protein 1.5 nM to 3 uM; 37 C (Table S3)). Conditions: chain copies: 2; label: tethered by stalled RNA polymerase.

| Binder | Kd [nM] |
| --- | --- |
| B1 | 51.7 |
| B2 | > 3000 |
| B3 | > 3000 |
| B4 | 5.95 |
| B5 | 77.6 |
| B6 | 463 |
| B7 | 166 |
| B8 | > 3000 |
| B9 | 208 |
| B10 | > 3000 |
| B11 | 19.2 |
| B12 | 15.7 |
| B13 | > 3000 |
| B14 | 368 |
| B15 | > 3000 |
| B16 | 20 |
| B17 | 279 |
| B18 | 51.2 |
| B19 | > 3000 |
| B20 | 974 |
| B21 | 18.5 |

| Binder | Kd [nM] |
| --- | --- |
| B22 | > 3000 |
| B23 | > 3000 |
| B24 | 34.2 |
| B25 | > 3000 |
| B26 | 166 |
| B27 | 68 |
| B28 | 5.71 |
| B29 | > 3000 |
| B30 | > 3000 |
| AAAACAUGAGGAUCACCCAUGUAAA (ssRNA) [Eterna 1 (MS2 control)] | 12.8 |
| B31 | 92.3 |
| B32 | 190 |
| B33 | 13.8 |
| B34 | > 3000 |
| B35 | 6.05 |
| B36 | 14.7 |
| B37 | 5.01 |
| B38 | 44.9 |
| B39 | > 3000 |
| B40 | 12.2 |
| B41 | > 3000 |
